Test results taken from patent US20140301946A1 (Novartis, published 2014).
Substitutions are numbered along the chain they refer to.

Tests used:
Human FGFR4 ECD [1] = biological target: T1, Human FGFR4 ECD (human, UniProt P22455 22-369); test: SPR (Biacore), assay conditions similar to those for 12425
T1 construct: whole entry is the construct; also called FGFR4 D1-D3 construct

Human FGFR4 ECD [2] = biological target: T1, Human FGFR4 ECD; test: SPR (Biacore), antibody captured, FGFR ECD as analyte
Experimental: The immobilization level and analyte interactions were measured by response unit (RU).
Subsequently, 0.078-100 nM of FGFR receptors, diluted in a 2-fold series, were injected at a flow rate of 80 μl/min for 7 min over both reference and test flow cells. Dissociation of the binding was followed for 10 min using HBS-EP⁺ supplemented with 0.5 mg/ml of BSA and 10 μg/ml heparin as running buffer. After each injection cycle, the chip surface was regenerated with 10 mM glycine, pH 2.0 at 60 μl/min for 70 s.

Human FGFR4 ECD [3] = biological target: T1, Human FGFR4 ECD; test: SET or Biacore, IgG
FGFR2 D2-D3 Construct = biological target: T2, FGFR2 D2-D3 Construct (Human); test: HDx-MS: deuterium uptake of FGFR2 D2-D3 peptides with mAb against control without mAb [A), D00032 FIG. 19 (B]
T2 construct: also called E. coli derived FGFR2 D2-D3 protein
T2 chain: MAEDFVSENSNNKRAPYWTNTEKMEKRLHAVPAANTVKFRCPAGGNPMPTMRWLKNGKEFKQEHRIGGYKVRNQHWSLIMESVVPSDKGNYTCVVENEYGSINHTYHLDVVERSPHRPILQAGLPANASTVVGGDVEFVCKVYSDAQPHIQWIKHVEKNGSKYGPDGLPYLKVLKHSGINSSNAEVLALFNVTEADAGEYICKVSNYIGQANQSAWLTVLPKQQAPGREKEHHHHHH

B1: mAb 20562 (antibody, human IgG1, kappa, V domains shown)
VH: EVQLLESGGGLVQPGGSLRLSCAASGFTFSDYAMSWVRQAPGKGLEWVSVIEGDASYTHYADSVRGRFTISRDNSKNTLYLQMNSLRAEDTAVYYCARERTYSSAFDYWGQGTLVTVSS
VL: DIQMTQSPSSLSASVGDRVTITCRASQDISSDLNWYQQKPGKAPKLLIYDASNLQSGVPSRFSGSGSGTDFTLTISSLQPEDFATYYCQQHYSPSHTFGQGTKVEIKR
Human FGFR4 ECD [1]
  Kd: 3.3 nM

B2: mAb 12439 (antibody, human IgG1, kappa, V domains shown)
VH: QVQLVQSGAEVKKPGASVKVSCKASGYTFTSYDISWVRQAPGQGLEWMGWINPYNGGTNYAQKFQGRVTMTRDTSISTAYMELSRLRSEDTAVYYCAREGSGMIVYPGWSYAFDYWGQGTLVTVSS
VL: B1 VL with S31N, N34G, D50A, N53S, S93H, P94T, S95P, H96N
Human FGFR4 ECD [2]
  Kd: 4.3 nM

B3: mAb 20811 (antibody, human IgG1, kappa, V domains shown)
VH: B1 VH with E1Q, V50T, A55S, S56N, T58I, H59E, R65K
VL: B1 VL with Q89H, H91W, P94T, S95L, H96Y
Human FGFR4 ECD [3]
  Kd: 0.075 nM
FGFR2 D2-D3 Construct
  binding result: binds

B4: mAb 12422 (antibody, human IgG1, kappa, V domains shown)
VH: QVQLVQSGAEVKKPGSSVKVSCKASGGTFSSYAISWVRQAPGQGLEWMGYISPYMGETHYAQKFQGRVTITADESTSTAYMELSSLRSEDTAVYYCARESYEYFDIWGQGTLVTVSS
VL: DIQMTQSPSSLSASVGDRVTITCRASQSISNDLAWYQQKPGKAPKLLIYATSILQSGVPSRFSGSGSGTDFTLTISSLQPEDFATYYCLQYYDYSYTFGQGTKVEIKR
Human FGFR4 ECD [2]
  Kd: 0.95 nM
